Test [1] addresses CusB N-terminal fragment residues 1-61, S(Met) (unlabelled) (Escherichia coli). The test is described as follows: rapid freeze quench X-ray absorption spectroscopy (RFQ-XAS, Se K edge); 23 °C; 1:2 mixture of apo-SeM-CusF with Cu(I)-loaded S(met)-CusB-NT, 50 mM HEPES pH 7.5, 5% ethylene glycol, liquid ethane quench, 15 ms to 30 s; Se-Cu peak height fitted (DYNAFIT) to rapid protein-protein association followed by intra-complex metal transfer; the complex shares one Cu(I) between ligands of both proteins.

For test [2] the target is unchanged.

CusB N-terminal fragment residues 1-61, S(Met) (unlabelled) (Escherichia coli), sequence (P77239 29-89 limits assumed): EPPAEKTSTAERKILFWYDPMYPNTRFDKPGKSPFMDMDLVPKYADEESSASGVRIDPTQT

What is called kon is the rate constant with which the complex forms. With “selenomethionine-labelled CusF(6-88) M8I M59I double mutant (domain or fragment)”, the on-rate (kon) in test [1] was 1e+06 M⁻¹ s⁻¹. Consider “CusF(6-88) M8I M59I double mutant, S(Met) (unlabelled) (domain or fragment)”, for which, in test [2], the fast phase of the quenching of the CusF W44 344 nm emission, stopped-flow fluorescence, 4 °C, apo-S(met)-CusF mixed with Cu(I)-S(Met)-CusB-NT was 165 s⁻¹ and the slow phase of the quenching of the CusF W44 344 nm emission, stopped-flow fluorescence, 4 °C, apo-S(met)-CusF mixed with Cu(I)-S(Met)-CusB-NT stood at 0.012 s⁻¹.

For the origin of these results see paper PMC6235853.
